Assay results published in paper PMC9898208.

Columns and labels:
Experiment in all cases: single-channel current recording
[1] = molecular target: OmpG^L3-FLAG/L6-SA1.1 (E. coli) (UniProt P76045)
[2] = molecular target: OmpG^L3/L6-SA1.1 (E. coli) (UniProt P76045)
OmpG^L6-SA1.1 (E. coli) = OmpG^L6-SA1.1 (E. coli) (UniProt P76045)
Sequence of OmpG^L6-SA1.1 (E. coli) (P76045 22-301): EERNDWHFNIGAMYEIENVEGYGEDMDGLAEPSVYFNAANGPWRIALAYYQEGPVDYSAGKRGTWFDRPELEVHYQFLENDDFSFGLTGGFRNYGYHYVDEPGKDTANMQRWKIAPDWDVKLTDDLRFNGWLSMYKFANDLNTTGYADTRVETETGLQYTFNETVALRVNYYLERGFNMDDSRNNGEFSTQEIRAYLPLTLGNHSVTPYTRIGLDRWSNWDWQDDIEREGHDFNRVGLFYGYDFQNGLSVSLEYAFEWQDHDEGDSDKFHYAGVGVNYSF

Sequence of OmpG^L3/L6-SA1.1 (E. coli) (P76045 22-301): as above
Sequence of OmpG^L3-FLAG/L6-SA1.1 (E. coli) (P76045 22-301): as above
Sequence of streptavidin (P22629 25-183): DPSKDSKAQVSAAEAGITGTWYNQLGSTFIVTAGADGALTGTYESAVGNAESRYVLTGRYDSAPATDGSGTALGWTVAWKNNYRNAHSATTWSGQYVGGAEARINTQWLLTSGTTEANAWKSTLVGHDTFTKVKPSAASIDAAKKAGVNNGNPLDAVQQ

**Q.** Which results are given for “streptavidin (from UniProt P22629 25-183) (natural protein)”?
**A.** Kd [1]: 7.51 µM; koff [1]: 0.55 s⁻¹; kon [1]: 72200 M⁻¹ s⁻¹; Kd [2]: 0.03 µM; k'Off of the sub-events within a discrete binding event [2]: 0.7 s⁻¹; k'On 1 of the sub-events (rebinding) [2]: 3.9e+10 M⁻¹ s⁻¹; k'On 2 of the sub-events (rebinding) [2]: 4.4e+09 M⁻¹ s⁻¹; koff [2]: 0.01 s⁻¹; kon [2]: 326000 M⁻¹ s⁻¹; tau'On 1 of the sub-events (rebinding) [2]: 2.56 ms; tau'On 2 of the sub-events (rebinding) [2]: 22.9 ms; Kd (OmpG^L6-SA1.1 (E. coli)): 10.1 µM; koff (OmpG^L6-SA1.1 (E. coli)): 0.78 s⁻¹; kon (OmpG^L6-SA1.1 (E. coli)): 77600 M⁻¹ s⁻¹
